Source: article PMC6926458

Experiments:
[1] = molecular target: Fissurella latimarginata hemocyanin, native (Fissurella latimarginata); test: negative-stain transmission electron microscopy; hemocyanins 0.6 mg/ml on parlodion-coated copper grids, 1-2% uranyl acetate; didecamers, decamers and dissociated structures counted in about 20 images
[2] = molecular target: Concholepas concholepas hemocyanin, native (Concholepas concholepas); test: as above

| Substance | stoichiometry N [1] | stoichiometry N [2] |
| --- | --- | --- |
| Fissurella latimarginata hemocyanin, native (natural protein) | 20 | – |
| Concholepas concholepas hemocyanin, native (complex) | – | 20 |
